# Source: the supplement of paper PMC6755084
# B1: F1*; the commonest letter at each place (parent)
# chain: GAGACCGCAACTGAAAAGTTGTTATCACTTGTCGTAAGACACTTTGGATGGGTTGAAGTTCTGCACGTAGAAGCAAAAGGC
# Variants of: B1
# Test: fraction ligated after 30 min (ligated reads / total reads); higher = more ligase activity
# Conditions: with F1*sub RNA substrate (template-directed ligation), 42 °C
# Description: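 Chip-synthesised pool of F1* ligase ribozyme variants (all single and double substitutions, single, double and triple deletions in the catalytic core and GAA bulge, plus designed variants) was transcribed with T7 and reacted as a pool with excess substrate F1*sub for 30 min at 42 C in 50 mM EPPS pH 8.5, 25 mM MgCl2. Ligated and unligated bands were separated by PAGE, barcoded by RT and deep sequenced; fraction ligated = ligated reads / total reads per variant, relative activity = FL / FL of wild type (0.826). Sequences are the DNA template of the ribozyme.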
row,Variant,fraction ligated
1,A24G C42G,0.795
2,A24G C42T,0.802
3,A24G G31A,0.202
4,A24G G31C,0.181
5,A24G G31T,0.331
6,A24G G34A,0.763
7,A24G G34C,0.73
8,A24G G34T,0.729
9,A24G G38A,0.752
10,A24G G38C,0.695
11,A24G G38T,0.745
12,A24G G46A,0.803
13,A24G G46C,0.765
14,A24G G46T,0.621
15,A24G G47A,0.684
16,A24G G47C,0.0125
17,A24G G47T,0.0352
18,A24G G50A,0.449
19,A24G G50C,0.257
20,A24G G50T,0.491
21,A24G G55A,0.685
22,A24G G55C,0.18
23,A24G G55T,0.629
24,A24G T25A,0.697

row,Variant,fraction ligated
1,A24G T25C,0.765
2,A24G T25G,0.368
3,A24G T29A,0.807
4,A24G T29C,0.741
5,A24G T29G,0.811
6,A24G T30A,0.745
7,A24G T30C,0.693
8,A24G T30G,0.79
9,A24G T32A,0.591
10,A24G T32C,0.369
11,A24G T32G,0.589
12,A24G T35A,0.786
13,A24G T35C,0.776
14,A24G T35G,0.774
15,A24G T43A,0.765
16,A24G T43C,0.694
17,A24G T43G,0.694
18,A24G T44A,0.817
19,A24G T44C,0.763
20,A24G T44G,0.791
21,A24G T45A,0.22
22,A24G T45C,0.0441
23,A24G T45G,0.0477
24,A24G T49A,0.742

row,Variant,fraction ligated
1,A24G T49C,0.731
2,A24G T49G,0.731
3,A24T,0.778
4,A24T A27C,0.737
5,A24T A27G,0.748
6,A24T A27T,0.712
7,A24T A36C,0.805
8,A24T A36G,0.519
9,A24T A36T,0.794
10,A24T A37C,0.77
11,A24T A37G,0.792
12,A24T A37T,0.786
13,A24T A39C,0.636
14,A24T A39G,0.793
15,A24T A39T,0.619
16,A24T A41C,0.184
17,A24T A41G,0.72
18,A24T A41T,0.785
19,A24T A48C,0.499
20,A24T A48G,0.214
21,A24T A48T,0.00859
22,A24T A56C,0.0299
23,A24T A56G,0.0306
24,A24T A56T,0.0614

row,Variant,fraction ligated
1,A24T A57C,0.386
2,A24T A57G,0.729
3,A24T A57T,0.503
4,A24T C26A,0.217
5,A24T C26G,0.201
6,A24T C26T,0.124
7,A24T C28A,0.492
8,A24T C28G,0.373
9,A24T C28T,0.794
10,A24T C33A,0.214
11,A24T C33G,0.336
12,A24T C33T,0.742
13,A24T C40A,0.34
14,A24T C40G,0.582
15,A24T C40T,0.769
16,A24T C42A,0.743
17,A24T C42G,0.769
18,A24T C42T,0.792
19,A24T G31A,0.0391
20,A24T G31C,0.0424
21,A24T G31T,0.0661
22,A24T G34A,0.789
23,A24T G34C,0.557
24,A24T G34T,0.76

row,Variant,fraction ligated
1,A24T G38A,0.205
2,A24T G38C,0.685
3,A24T G38T,0.745
4,A24T G46A,0.553
5,A24T G46C,0.313
6,A24T G46T,0.2
7,A24T G47A,0.797
8,A24T G47C,0.0331
9,A24T G47T,0.108
10,A24T G50A,0.265
11,A24T G50C,0.295
12,A24T G50T,0.535
13,A24T G55A,0.532
14,A24T G55C,0.107
15,A24T G55T,0.18
16,A24T T25A,0.735
17,A24T T25C,0.779
18,A24T T25G,0.722
19,A24T T29A,0.789
20,A24T T29C,0.6
21,A24T T29G,0.716
22,A24T T30A,0.67
23,A24T T30C,0.297
24,A24T T30G,0.768

row,Variant,fraction ligated
1,A24T T32A,0.153
2,A24T T32C,0.243
3,A24T T32G,0.372
4,A24T T35A,0.808
5,A24T T35C,0.788
6,A24T T35G,0.772
7,A24T T43A,0.678
8,A24T T43C,0.621
9,A24T T43G,0.708
10,A24T T44A,0.772
11,A24T T44C,0.778
12,A24T T44G,0.196
13,A24T T45A,0.0698
14,A24T T45C,0.0212
15,A24T T45G,0.0472
16,A24T T49A,0.8
17,A24T T49C,0.694
18,A24T T49G,0.783
19,T25A,0.749
20,T25A A27C,0.266
21,T25A A27G,0.372
22,T25A A27T,0.371
23,T25A A36C,0.684
24,T25A A36G,0.766

row,Variant,fraction ligated
1,T25A A36T,0.752
2,T25A A37C,0.744
3,T25A A37G,0.772
4,T25A A37T,0.776
5,T25A A39C,0.223
6,T25A A39G,0.751
7,T25A A39T,0.255
8,T25A A41C,0.0344
9,T25A A41G,0.419
10,T25A A41T,0.587
11,T25A A48C,0.752
12,T25A A48G,0.459
13,T25A A48T,0.822
14,T25A A56C,0.0125
15,T25A A56G,0.0269
16,T25A A56T,0.0445
17,T25A A57C,0.199
18,T25A A57G,0.345
19,T25A A57T,0.252
20,T25A C26A,0.0968
21,T25A C26G,0.0644
22,T25A C26T,0.129
23,T25A C28A,0.396
24,T25A C28G,0.431

row,Variant,fraction ligated
1,T25A C28T,0.714
2,T25A C33A,0.189
3,T25A C33G,0.229
4,T25A C33T,0.472
5,T25A C40A,0.134
6,T25A C40G,0.256
7,T25A C40T,0.647
8,T25A C42A,0.653
9,T25A C42G,0.553
10,T25A C42T,0.785
11,T25A G31A,0.0494
12,T25A G31C,0.034
13,T25A G31T,0.0308
14,T25A G34A,0.724
15,T25A G34C,0.521
16,T25A G34T,0.718
17,T25A G38A,0.353
18,T25A G38C,0.0835
19,T25A G38T,0.375
20,T25A G46A,0.279
21,T25A G46C,0.137
22,T25A G46T,0.0811
23,T25A G47A,0.462
24,T25A G47C,0.0196

row,Variant,fraction ligated
1,T25A G47T,0.253
2,T25A G50A,0.225
3,T25A G50C,0.267
4,T25A G50T,0.536
5,T25A G55A,0.263
6,T25A G55C,0.0483
7,T25A G55T,0.0485
8,T25A T29A,0.582
9,T25A T29C,0.187
10,T25A T29G,0.691
11,T25A T30A,0.32
12,T25A T30C,0.218
13,T25A T30G,0.461
14,T25A T32A,0.094
15,T25A T32C,0.145
16,T25A T32G,0.13
17,T25A T35A,0.751
18,T25A T35C,0.761
19,T25A T35G,0.764
20,T25A T43A,0.463
21,T25A T43C,0.286
22,T25A T43G,0.624
23,T25A T44A,0.762
24,T25A T44C,0.605

row,Variant,fraction ligated
1,T25A T44G,0.117
2,T25A T45A,0.0271
3,T25A T45C,0.0183
4,T25A T45G,0.029
5,T25A T49A,0.721
6,T25A T49C,0.612
7,T25A T49G,0.772
8,T25C,0.759
9,T25C A27C,0.744
10,T25C A27G,0.796
11,T25C A27T,0.774
12,T25C A36C,0.771
13,T25C A36G,0.816
14,T25C A36T,0.793
15,T25C A37C,0.766
16,T25C A37G,0.812
17,T25C A37T,0.784
18,T25C A39C,0.741
19,T25C A39G,0.786
20,T25C A39T,0.766
21,T25C A41C,0.517
22,T25C A41G,0.757
23,T25C A41T,0.82
24,T25C A48C,0.686

row,Variant,fraction ligated
1,T25C A48G,0.794
2,T25C A48T,0.815
3,T25C A56C,0.0931
4,T25C A56G,0.0517
5,T25C A56T,0.107
6,T25C A57C,0.563
7,T25C A57G,0.711
8,T25C A57T,0.682
9,T25C C26A,0.0548
10,T25C C26G,0.0807
11,T25C C26T,0.813
12,T25C C28A,0.684
13,T25C C28G,0.78
14,T25C C28T,0.803
15,T25C C33A,0.77
16,T25C C33G,0.144
17,T25C C33T,0.786
18,T25C C40A,0.524
19,T25C C40G,0.378
20,T25C C40T,0.819
21,T25C C42A,0.776
22,T25C C42G,0.769
23,T25C C42T,0.804
24,T25C G31A,0.742

row,Variant,fraction ligated
1,T25C G31C,0.53
2,T25C G31T,0.546
3,T25C G34A,0.799
4,T25C G34C,0.795
5,T25C G34T,0.786
6,T25C G38A,0.803
7,T25C G38C,0.0674
8,T25C G38T,0.747
9,T25C G46A,0.71
10,T25C G46C,0.474
11,T25C G46T,0.396
12,T25C G47A,0.734
13,T25C G47C,0.0468
14,T25C G47T,0.208
15,T25C G50A,0.326
16,T25C G50C,0.379
17,T25C G50T,0.639
18,T25C G55A,0.784
19,T25C G55C,0.424
20,T25C G55T,0.174
21,T25C T29A,0.753
22,T25C T29C,0.781
23,T25C T29G,0.783
24,T25C T30A,0.75

row,Variant,fraction ligated
1,T25C T30C,0.751
2,T25C T30G,0.162
3,T25C T32A,0.745
4,T25C T32C,0.762
5,T25C T32G,0.707
6,T25C T35A,0.781
7,T25C T35C,0.771
8,T25C T35G,0.801
9,T25C T43A,0.655
10,T25C T43C,0.731
11,T25C T43G,0.8
12,T25C T44A,0.788
13,T25C T44C,0.765
14,T25C T44G,0.0249
15,T25C T45A,0.295
16,T25C T45C,0.0655
17,T25C T45G,0.0359
18,T25C T49A,0.777
19,T25C T49C,0.757
20,T25C T49G,0.777
21,T25G,0.784
22,T25G A27C,0.705
23,T25G A27G,0.434
24,T25G A27T,0.706

row,Variant,fraction ligated
1,T25G A36C,0.77
2,T25G A36G,0.795
3,T25G A36T,0.795
4,T25G A37C,0.757
5,T25G A37G,0.806
6,T25G A37T,0.808
7,T25G A39C,0.373
8,T25G A39G,0.759
9,T25G A39T,0.393
10,T25G A41C,0.0915
11,T25G A41G,0.492
12,T25G A41T,0.662
13,T25G A48C,0.819
14,T25G A48G,0.291
15,T25G A48T,0.818
16,T25G A56C,0.0423
17,T25G A56G,0.0638
18,T25G A56T,0.0925
19,T25G A57C,0.556
20,T25G A57G,0.703
21,T25G A57T,0.563
22,T25G C26A,0.261
